Patent US20240109974A1 (SHANDONG SIMCERE BIOPHARMACEUTICAL, published 2024)
Residue numbers refer to the chain shown, from its start.

T1: human TNFR2 (Novoprotein, Cat #C830) (human, UniProt P20333 23-257, limits assumed)
T1 construct: construct not described; also called human TNFR2 protein
T1 sequence (looked up): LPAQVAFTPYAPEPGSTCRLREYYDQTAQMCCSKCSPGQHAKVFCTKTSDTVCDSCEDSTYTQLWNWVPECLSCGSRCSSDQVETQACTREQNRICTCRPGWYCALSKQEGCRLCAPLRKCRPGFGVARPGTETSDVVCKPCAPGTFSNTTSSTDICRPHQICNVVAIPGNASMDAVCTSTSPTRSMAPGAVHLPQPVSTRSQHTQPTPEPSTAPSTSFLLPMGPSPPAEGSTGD

T2: Cynomolgus TNFR2-His (Sino 90102-C08H) (cynomolgus monkey, UniProt A0A2K5VET2 132-366)
T2 construct: Bought protein; also called cynomolgus monkey TNFR2; recombinant cynomolgus monkey TNFR2 protein; not shown: His tag
T2 sequence: T1 sequence (looked up) with S16G, S36P, P117Q, N164H, E210A, S216G, M223V

B1: 219-WT (antibody, V domains shown)
VH: EVQLQESGAELVRPGASVKLSCKASGYSFTNYWMNWVKQRPGQGLEWIGMIHPSDTETRLNQNFKDKATLTVDKSSSTSYMQLSSPTSEDSAVYYCARGEGLGAARSVSMDYWGQGTTVTVSS
VL: DILMTQSPSSLSASLGDRVTISCRASQDISNYLNWYQQKPDGTVKVLIYYTAILHSGVPSRFSGSGSGTDYSLTISNLEQEDIATYFCQQGNTLPWTFGGGTKLEIK
notes: Human-murine chimeric wild-type molecule
B2: 001-WT (antibody, V domains shown)
VH: EVQLQESGGGLVQPGGSLNLSCAASGFAFSTYDLSWVRQTPEKRLEWVAYINNGGISTYYSDTVKGRFTISRDNAKNTLYLQMSSLKSEDTAMYYCVRGPFYGSANYFDYWGQGTTVTVSS
VL: EIVMTQSPASLSLSVGETVTITCRTSESIYSNLPWYQQKQGKSPQLLVYDATKLAEGVPSRFSGSESGTQYSLKINSLQSEDFGTYYCQHFWVTPWTFGGGTKLEIK
notes: Human-murine chimeric wild-type molecule; also called human-murine chimeric antibody WT of #001

Experiments:
[1] = molecular target: T1, human TNFR2 (Novoprotein, Cat #C830); assay: competition ELISA: antibody titrated against human TNFα-Biotin on coated human TNFR2 (Novoprotein), detection with Streptavidin-HRP [panel B]
Protocol: (§1) 1 μg/ml human TNFR2 (Novoprotein, Cat #C830) was pre-coated with 100 μl/well […] in an ELISA plate. All the test TNFR2 antibodies were subjected to 2.5-fold gradient dilution from the highest concentration of 30 μg/ml; the diluted antibodies were mixed with 15 ng/ml human TNFα-Biotin (Acro Biosystem, Cat #TNA-H82E3) in equal volume, respectively; the resulting mixture was added to the ELISA plate at 100 μl/well, and incubated with shaking at room temperature for 2.0 hours. The plate was washed, and then a Streptavidin-HRP working solution (diluted at 1:10000) was added at 100 μl/well, and the mixture was incubated with shaking at room temperature for 40 minutes. The plate was washed again, and then the substrate TMB of HRP was added to develop colour. A stop solution was added to stop the reaction, and then a microplate reader (MD 13) was used to read the absorbance value. The inhibitory curve of an antibody was drawn with antibody concentration as the abscissa and corresponding OD value as the ordinate, and fitted with four parameters (GraphPad Prism9) to calculate the IC50 value. The smaller the IC50 value, the stronger the ability of an antibody to inhibit the binding of human TNFα to human TNFR2. The blocking effect of a humanized antibody was normalized to its corresponding human-murine chimeric antibody WT. […]

[2] = molecular target: T2, Cynomolgus TNFR2-His (Sino 90102-C08H); assay: ELISA, plate coated with Cynomolgus TNFR2-His, detection with anti-human IgG Fc-HRP [panel B]
Protocol: The test humanized antibody against TNFR2 (as described in Example 1, the antibody was comprised of variable regions linked to IgG-Fc; the WT chimeric antibody also adopted the IgG-Fc structure) was subjected to 3.33-fold gradient dilution, loaded with 100 μl/well, and incubated with shaking at room temperature for 1.5 hours. The plate was washed, and then a working solution of murine anti-human IgG Fc-HRP (diluted at 1:10000) was added, loaded with 100 μl/well, and incubated with shaking at room temperature for 1.0 hour. The plate was washed again, and then the substrate TMB of HRP was added to develop colour. A stop solution was added to stop the reaction, and then a microplate reader (MD 13) was used to read the absorbance value. The binding curve of an antibody was drawn with antibody concentration as the abscissa and corresponding OD value as the ordinate, and fitted with four parameters (GraphPad Prism9) to calculate the EC50 value. The smaller the EC50 value, the stronger the binding ability of an antibody to human/cynomolgus monkey TNFR2. The binding effect of a humanized antibody was normalized to its corresponding human-murine chimeric antibody WT (see SEQ ID NOs: 38-43 for the sequence). The higher the percentage value, the better the binding effect of the humanized antibody. […]

[3] = molecular target: T1, human TNFR2 (Novoprotein, Cat #C830); assay: competition ELISA: antibody titrated against human TNFα-Biotin on coated human TNFR2 (Novoprotein), detection with Streptavidin-HRP [panel A]
Protocol: as §1

Row | Binder | IC50 (read off the curve) [1] | EC50 (read off the curve) [2] | IC50 (read off the curve) [3]
1 | B1 | ~0.6 µg/mL | ~0.01 µg/mL | –
2 | B2 | – | – | ~0.6 µg/mL
